Data set [1] concerns the molecule itself. The experiment in a line: native MS; liquid native MALDI mass spectrometry of endogenous ARNT pulled down from total kidney lysates of LB100-treated UUO mice; eluted in 0.3% TFA, mixed with ammonium acetate buffer (100 mM, pH 9), glycerol.
Data set [2] concerns the molecule itself. The experiment in a line: immunoprecipitation and MALDI-TOF mass spectrometry; endogenous ARNT pulled down from extracts of LB100-treated MCT cells with ARNT antibody, eluted with 0.3% TFA, sinapinic acid matrix, linear positive mode.

The record followed here is PMC8674365, “PP2A phosphatase inhibition is anti-fibrotic through Ser77 phosphorylation-mediated ARNT/ARNT homodimer formation” (Scientific Reports, 2021).

B1: Endogenous ARNT of mouse kidney (UUO-challenged C57BL/6 mice) (natural protein)
chain: not shown
notes: Aryl hydrocarbon receptor nuclear translocator (ARNT), endogenous in kidney tissue of C57BL/6 mice; source: endogenous, total kidney lysate of mice, immunoprecipitated with ARNT antibody
As for B1, the “stoichiometry N” value in data set [1] was found to be 2.

B2: Endogenous ARNT of mouse tubular epithelial cells (MCT) (natural protein)
chain: not shown
notes: Aryl hydrocarbon receptor nuclear translocator (ARNT), endogenous in the murine proximal tubular epithelial cell line MCT; source: endogenous, MCT cell extract, immunoprecipitated with ARNT antibody
As to B2, the “stoichiometry N” value in data set [2] was determined as 2.
